In patent publication US20240092889A1 (Chugai, published 2024):
Positions count from the first letter of the chain named. In names and notes the source's numbering stands. Blank lines part the entries; values can stand above or below the binder they belong to.

Columns and labels:
[1] = biological target: T1, recombinant human C1r2s2 tetramer (human, UniProt P09871 16-688; P00736 18-705); experiment: SPR (BIACORE), antibody captured by ProL, human C1r2s2 injected at 100 nM, pH 7.4, 37 C
T1 construct: C1s and C1r co-expressed in HEK293/FreeStyle 293-F and purified from conditioned medium
T1 chain 1: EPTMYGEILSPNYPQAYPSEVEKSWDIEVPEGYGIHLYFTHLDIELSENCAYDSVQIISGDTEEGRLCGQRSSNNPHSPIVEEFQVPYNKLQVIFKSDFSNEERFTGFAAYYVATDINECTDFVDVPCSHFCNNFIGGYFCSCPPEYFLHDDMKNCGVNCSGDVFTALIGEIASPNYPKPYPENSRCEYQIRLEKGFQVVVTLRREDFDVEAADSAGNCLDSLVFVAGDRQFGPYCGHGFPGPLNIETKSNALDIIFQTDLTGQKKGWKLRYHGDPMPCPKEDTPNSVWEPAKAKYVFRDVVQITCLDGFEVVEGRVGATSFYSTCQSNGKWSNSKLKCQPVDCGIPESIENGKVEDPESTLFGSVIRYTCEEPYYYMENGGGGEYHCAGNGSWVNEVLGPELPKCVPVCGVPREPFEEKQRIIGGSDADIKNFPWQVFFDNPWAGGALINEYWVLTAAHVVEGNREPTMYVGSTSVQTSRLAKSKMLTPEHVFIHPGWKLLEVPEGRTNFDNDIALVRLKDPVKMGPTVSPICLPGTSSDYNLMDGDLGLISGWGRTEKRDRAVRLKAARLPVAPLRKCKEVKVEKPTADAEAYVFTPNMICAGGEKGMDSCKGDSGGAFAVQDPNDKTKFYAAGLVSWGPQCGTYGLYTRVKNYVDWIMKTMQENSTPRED
T1 chain 2: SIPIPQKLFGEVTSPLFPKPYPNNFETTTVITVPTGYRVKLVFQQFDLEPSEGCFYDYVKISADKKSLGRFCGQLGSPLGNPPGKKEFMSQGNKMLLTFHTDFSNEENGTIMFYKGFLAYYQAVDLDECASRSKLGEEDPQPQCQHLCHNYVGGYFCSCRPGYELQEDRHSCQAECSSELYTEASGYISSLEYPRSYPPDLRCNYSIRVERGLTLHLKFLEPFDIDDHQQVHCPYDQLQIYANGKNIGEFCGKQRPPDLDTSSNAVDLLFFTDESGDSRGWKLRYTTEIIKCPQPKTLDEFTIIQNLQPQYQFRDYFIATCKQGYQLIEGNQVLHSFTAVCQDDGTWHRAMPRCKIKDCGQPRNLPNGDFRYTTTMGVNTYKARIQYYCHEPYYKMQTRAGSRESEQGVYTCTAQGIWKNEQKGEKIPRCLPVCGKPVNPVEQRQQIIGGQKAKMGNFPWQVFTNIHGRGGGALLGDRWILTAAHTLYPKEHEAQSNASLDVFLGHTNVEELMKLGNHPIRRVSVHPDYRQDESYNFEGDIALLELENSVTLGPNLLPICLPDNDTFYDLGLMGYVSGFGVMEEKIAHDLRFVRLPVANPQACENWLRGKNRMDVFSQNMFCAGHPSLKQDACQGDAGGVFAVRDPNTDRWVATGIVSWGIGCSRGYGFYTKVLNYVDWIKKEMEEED
Description: Analysis of interaction between antibody variants and the human C1r2s2 prepared as mentioned above was carried out at pH7.4, at 37 degrees C. using BIACORE® T200 instrument (GE Healthcare) or BIACORE® 4000 (GE Healthcare). ProL (BioVision) was immobilized onto a CM4 sensorchip using amine coupling kit (GE Healthcare) according to the recommended settings by GE Healthcare. Antibodies and analytes were diluted into the respective running buffers, ACES pH7.4 (20 mM ACES (N-(2-Acetamido)-2-aminoethanesulfonic acid), 150 mM NaCl, 1.2 mM CaCl2, 1 mg/ml bovine serum albumin (BSA), 1 mg/ml CMD (CM-Dextran sodium salt), 0.05% Tween® 20 (polysorbate 20), 0.005 w/v % NaN3). Each antibody was captured onto the sensor surface by ProL. Antibody capture levels were aimed at 200 resonance units (RU). Then, recombinant human C1r2s2 was injected at concentrations of 25 and 100 nM followed by dissociation at pH7.4. The surface was regenerated using 10 mM Glycine-HCl, pH1.5.

[2] = biological target: T1, recombinant human C1r2s2 tetramer; experiment: SPR (BIACORE T200), 37 C, Ab captured via anti-human Ig kappa, human C1r2s2 as analyte, pH 5.8
Description: (§1) KD (dissociation constant) value of each samples at pH 7.4 and pH 5.8 are determined at 37 degrees C. using BIACORE® T200 instrument (GE Healthcare). Purified Mouse Anti-Human Ig kappa Light Chain (GE Healthcare) can be immobilized onto all flow cells of a CMS sensor chip using an amine coupling kit (GE Healthcare). 20 mM ACES, 150 mM NaCl, 1.2 mM CaCl2, 1 mg/mL BSA (IgG-free), 1 mg/mL CMD, 0.05% Tween® 20, 0.005% NaN3, pH 7.4 or pH 5.8 buffer were used as running buffer. Each antibody can be captured onto the sensor surface by Anti-Human Ig kappa Light chain. Antibody capture levels are aimed at 50 resonance unit (RU). […] Sensor surface is regenerated each cycle with, e.g., Glycine pH 2.0 (GE Healthcare). KD values were obtained using BIACORE® T200 Evaluation software, version 2.0 (GE Healthcare).

[3] = biological target: T1, recombinant human C1r2s2 tetramer; experiment: SPR (BIACORE T200), 37 C, Ab captured via anti-human Ig kappa, human C1r2s2 as analyte, pH 7.4
Description: as §1

[4] = biological target: T1, recombinant human C1r2s2 tetramer; experiment: SPR (BIACORE T200), 37 C, ratio of KD at pH 5.8 to KD at pH 7.4
Description: as §1

B2: COS0637pHv7-TT91R (antibody, V domains shown)
VH: QVQLVESGGGVVQPGRSLRLSCAASGFTFSAYAMNWIRQPPGKGLEWIGLIYGSGHEFYASWAEERVTISVDTSKNQFSLKLSSVTAADTAVYYCARGRSKNYNSDFHLWGQGTLVTVSS
VL: DIQMTQSPSSLSASVGDRVTITCQASQILHDKKNLAWYQQKPGQPPKLLIYQASQLESGVPSRFSGSGSGTDFTLTISSLQPEDFATYYCHGEFSYSSADLNTFGQGTKVEIKR
- Kd [2]: 353 nM
- Kd [3]: 4.9 nM
- KD (pH 5.8)/KD (pH 7.4) [4]: 72

B3: COS0637pHv6-TT91R (antibody, V domains shown)
VH: B2 VH with T28S, N104V, D106G
VL: B2 VL with S26Q, K33R, S97E
- Kd [2]: 838 nM
- Kd [3]: 8.39 nM
- KD (pH 5.8)/KD (pH 7.4) [4]: 100

B9: COS0637pHv1-TT91R (antibody, V domains shown)
VH: B2 VH with G55K, H56S, E57T, E65G
VL: B2 VL with I28S, Q52G, Q55T, H91Q, Y96C, L101C
- Kd [2]: 3600 nM
- Kd [3]: 17.2 nM
- KD (pH 5.8)/KD (pH 7.4) [4]: 209

B11: COS0637pHv4-TT91R (antibody, V domains shown)
VH: B2 VH with T28S, N104V, D106G
VL: B2 VL with S97E, T103Q
- Kd [2]: 811 nM
- Kd [3]: 8.23 nM
- KD (pH 5.8)/KD (pH 7.4) [4]: 99

B14: COS0637h-TT91R (antibody, human IgG1, V domains shown)
VH: B2 VH with H56S, E57T, E64K, E65G, K101V, H108K
VL: B2 VL with I28S, Q52G, Q55T, H91Q, Y96C, L101C
notes: Humanized COS0637cc; modified human IgG1 CH TT91R, human CL SK1
- Kd [2]: 362 nM
- Kd [3]: 25.4 nM
- KD (pH 5.8)/KD (pH 7.4) [4]: 14

B15: COS0637pHv2-TT91R (antibody, V domains shown)
VH: B2 VH with T28R, S54K, H56S, E57T, E64K, K101V
VL: B2 VL with I28S, Q52G, Q55T, H91Q, Y96C, L101C
- Kd [2]: 588 nM
- Kd [3]: 13.4 nM
- KD (pH 5.8)/KD (pH 7.4) [4]: 44

B17: COS0637cc-TT91R (antibody, human IgG1)
heavy: QSLEESGGRLVTPGTPLTLTCTASGFSLSAYAMNWVRQAPGKGLEWIGLIYGSGSTFYASWAKGRFTISKTSTTVDLKMTSLTTEDTATYFCARGRSVNYNSDFKLWGPGTLVTVSSASTKGPSVFPLAPSSKSTSGGTAALGCLVKDYFPEPVTVSWNSGALTSGVHTFPAVLQSSGLYSLSSVVTVPSSSLGTQTYICNVNHKPSNTKVDKRVEPKSCDKTHTCPPCPAPEYLGGDSVFLFPPKPKDVLMISRTPEVTCVVIDVSHEDPEVKFNWYVDGVEVHNAKTKPREEQYNSTYRVVSVLPVLHRDWLNGKEYKCKVSNKALPKPIEKTISKAKGQRREPQVYTLPPSREEMTKNQVSLTCLVKGFYPSDIAVEWESNGQPENNYKTTPPVLDSDGSFFLYSKLTVDKSRWQQGNVFSCSVLHEALHAHTTRKELSLSP
light: QVLTQTPSSVSAAVGGTVTINCQASQSLHDKKNLAWYQHKPGQRPNLLIYGASTLESGVPSRFKGSGSGTEYTLTISDLECDDAAAYYCQGEFSCSSADCNTFGGGTKVEIKRTVAAPSVFIFPPSDEQLKSGTASVVCLLNNFYPREAKVQWKVDNALQSGNSQESVTEQDSKDCTYSLSSTLTLSKADYEKHKVYACEVTHQGLSSPVTKSFNRGEC
notes: Rabbit variable regions (chimera) with modified human IgG1 CH TT91R and modified human CL KOMC; also called COS637cc-TT91R
- Kd [2]: 43.3 nM
- Kd [3]: 4.48 nM
- KD (pH 5.8)/KD (pH 7.4) [4]: 10

The remaining lines, values ahead:

- binding result [1]: no binding (tested: 100 nM)
B1: AL0746 (antibody, human IgG1, kappa, V domains shown)
VH: B2 VH with H56S, E57T, E64K, E65G, K101V
VL: B2 VL with I28S, Q52G, Q55T, H91Q, Y96R, L101Y
notes: COS0637temp with VL C94R/C95dY (Kabat), already in the VL entry

- Kd [2]: 157 nM
- Kd [3]: 3.48 nM
- KD (pH 5.8)/KD (pH 7.4) [4]: 45
B4: COS0637pHv9-TT91R (antibody, V domains shown)
VH: B2 VH
VL: B2 VL with S26N, L56R, S95P, S97E

- binding result [1]: no binding (tested: 100 nM)
B5: AL0749 (antibody, human IgG1, kappa, V domains shown)
VH: B2 VH with H56S, E57T, E64K, E65G, K101V
VL: B2 VL with I28S, Q52G, Q55T, H91Q, Y96L, L101R
notes: COS0637temp with VL C94L/C95dR (Kabat), already in the VL entry

- binding result [1]: no binding (tested: 100 nM)
B6: AL0747 (antibody, human IgG1, kappa, V domains shown)
VH: B2 VH with H56S, E57T, E64K, E65G, K101V
VL: B2 VL with I28S, Q52G, Q55T, H91Q, Y96M, L101R
notes: COS0637temp with VL C94M/C95dR (Kabat), already in the VL entry

- binding result [1]: no binding (tested: 100 nM)
B7: AL0751 (antibody, human IgG1, kappa, V domains shown)
VH: B2 VH with H56S, E57T, E64K, E65G, K101V
VL: B2 VL with I28S, Q52G, Q55T, H91Q, Y96A, L101V
notes: COS0637temp with VL C94A/C95dV (Kabat), already in the VL entry

- binding result [1]: no binding (tested: 100 nM)
B8: AL0748 (antibody, human IgG1, kappa, V domains shown)
VH: B2 VH with H56S, E57T, E64K, E65G, K101V
VL: B2 VL with I28S, Q52G, Q55T, H91Q, Y96I, L101F
notes: COS0637temp with VL C94I/C95dF (Kabat), already in the VL entry

- binding result [1]: no binding (tested: 100 nM)
B10: AL0753 (antibody, human IgG1, kappa, V domains shown)
VH: B2 VH with H56S, E57T, E64K, E65G, K101V
VL: B2 VL with I28S, Q52G, Q55T, H91Q, Y96V, L101V
notes: COS0637temp with VL C94V/C95dV (Kabat), already in the VL entry

- binding result [1]: no binding (tested: 100 nM)
B12: AL0752 (antibody, human IgG1, kappa, V domains shown)
VH: B2 VH with H56S, E57T, E64K, E65G, K101V
VL: B2 VL with I28S, Q52G, Q55T, H91Q, Y96V, L101A
notes: COS0637temp with VL C94V/C95dA (Kabat), already in the VL entry

- binding result [1]: no binding (tested: 100 nM)
B13: AL0750 (antibody, human IgG1, kappa, V domains shown)
VH: B2 VH with H56S, E57T, E64K, E65G, K101V
VL: B2 VL with I28S, Q52G, Q55T, H91Q, Y96M
notes: COS0637temp with VL C94M/C95dL (Kabat), already in the VL entry

- Kd [2]: 874 nM
- Kd [3]: 7.46 nM
- KD (pH 5.8)/KD (pH 7.4) [4]: 117
B16: COS0637pHv8-TT91R (antibody, V domains shown)
VH: B2 VH
VL: B2 VL with S26N, Q52G, Q55T
